In a protein production outcome set (Wang et al. 2014):

Assay: label from the status in PepcDB records
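Further: failed if final PepcDB status was selected cloned or expressed and not failed if soluble or beyond.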

**Q.** Which protein production does the source give for “MADPTSSERLLVTAALPYANGPIHIGHLAGAYLPADLFVRYQRLKGEDVAFICGSDEMGVAILMRAIREDRTPEDIIDTYHPQIRDNFERFGMSFDYYGRTSSETHTETTQDFFRVLDENGGFDLKTDEQLYDPEAEMFLADRFVIGTCPVCGFEEAYGDQCEQCGSSLSPTELENPQSTLTDATPEFKETTHWYLPLGELQPQLEEWIGSHPEWKNNVVGQIQSWFDEGLKGRAITRDVLWGVPVPDDVAERHGLEAEGKVIYVWFDAPIGYISATKEWAAEQGEPDAWTDYWQDEDTRLVHFIGKDNIVFHCLMFPSMLMEHGDYVLPDNVPANEFLNLEGEKLSTSRGWAVWLHEYLDDFADERHAPDLLRYALATTLPETKDADFSWEGFQQRVNGELANVFGNFVHRTLTFAQRYFDGTVPPLEDPSEADRVMLDRMAEVPDTVGAAYEEHRTRDAVFETMALARRGNKYFNDTEPWHTHESDPQACANTIHVSLQVCAALSILFEPVLPSAAATLRERIGLENVRTSTPDDDPAGAVGWEDAGAPLLPAGHPIPSGPDPEPLFQKIDDDTIEAQIEKLRDRAAERDTDPSSTTDMDYEALSDNISFDDFTQLDLRAGTVTTAEPVPDADKLLRLEVDLGFEERQILAGVAEQMAPDDVVGLEVVVVANMAPKEMFGFESQGMVLMAEEPDGTFVPVTTEAEDGSVVR” here?
**A.** failed

**Q.** For “MADRPIEIVDRQNVLTVHLPGTYTVMYDARYCYVSYIPVSETVAEFTLTGFKYPLTNCHISRGSTLCISNELIQSSGTFSFSEGILMMIRSSDSLEHHHHHH”, which protein production is on record?
**A.** failed

**Q.** For “MADRQLLHTAHIPVRWGDMDSYGHVNNTLYFQYLEEARVAWFETLGIDLEGAAEGPVVLQSLHTYLKPVVHPATVVVELYAGRLGTSSLVLEHRLHTLEDPQGTYGEGHCKLVWVRHAENRSTPVPDSIRAAIA”, which protein production is on record?
**A.** not failed

**Q.** For “MADSDSNEVLIEEIDSNDVPENELEQFQETEPLRVVDIIDCDTDGERRCIADDEEEGALIKRYVQGVQCLEFPDFCTKLEASDEDEEGNDEEPSEAAGSIEKPNTSAQAKTSQEQSTGSGRSGGGGFRKSQLSTALQGLMGEANLSFVYGRYETAERICMEIIRQNPLASEPFYTLAEIYENRDEVKFLNFSTLAAHLNPQDRDMWIRVSDLLVQQGNLARARLIYTKAIKMLPKVYQLRLRKAQLLQKMGETNASMFTYLKMLPLMPPDEWKMCLNTAKNVARYFHVLEKHSLALEAMEGAYSVCGARFTLEDINIYLELLILNKQYAKVLRCLRERTNFELENDQEESLELIYFCEIPDDYVPELRAKLCVSLIHMRAHHLLGYLIQNVQEHITLTADRVELYMDITEALMQEHKYAEAIALMSPITDGDTVECPAFVWLRQAECLRQLNRTNEAIQSYEKVVQLAPFCYDARFTLSALLKQQGRHEEAVQALEQPGEAEGQPLIARLLYERCVMLQQIGRIEEFLDVGYALLSRHSIKLYNREEMMAAANGGSAYNSESLKTIIQMRSKAVDNSAEQDLQDPAKNAASETSDLTVKDEFELFRELVRTAFKHGMHSAAEKICFAMVTTKRFTYYHHEIERIMVLTCYYNDDCAIAFSYLRELIAKQPSQTTLWNMLSLMIQKGDEVRYYRYMRRLMQRHPVDTKPMRIFQGHYHLNCASFKYALNIYMPILRENPDPLVALCIAVAFNQLSLQKKVLRKSASVAQAVAFGQRYKELRSAGHELADCAAQQEIFYNIGRIYHQANILHLAVDYYEKALAVPVHPLIAEHESTLGLQHEVAFNLHLIYRANGNKWKARQYLMRYCVV”, which protein production is on record?
**A.** failed

**Q.** With “MADSIKSSNSFQKLDNIDAKETSTVDRKWVALTAYQPVDVVTKTVEVPIIKTVEKYVPKTIIQEKIIHVPKNVTHIVEKIVEVPEVKYIEKIVEVPHIHYKNKYVPKIEIVEKVVERQKIIEKWHDKIVEVPQIKEVVRFKQIEDSEEIIKYVPRNSKNIDWEDEYKKYTESKGLQRYSLDQNNIYQQANSFNQFNENAYNQNAFNRSYELLNKQSSVKSQNNASGENFSQMNFYNQYSGANFEQERSIQASNFEPSGSMQLKRLSSEEIKPAGCCSAACT” as the sequence, how does the protein production read?
**A.** failed

**Q.** Which protein production does the source give for “MADSKSFTFELNESVLTAQVGRLDEMAMVVEQRFSELKMTIEDVGNADPGSKISESLGGLQSGLGTISSAFGQLGSSSEAITSGFGTAVGSVGGITDAFKNLGSSVQNGTLFSSLATGIGGMSTMLGGVSGGVQGITNLASGFMELKNHLGGLMSSIGGVGGIMGKLTSPMGLVIIGIVALVAAFAYLMTTNESFRNTVMSVVTQVAQLFGQLVASLMPIIMQIVTAVMQIGAALMPMVMQFISFFAQLLAQLMPFINMLISMLMPVIMQIVQVVMSLVSALLPSIMTVIQGIMSVIQFLIPIIMQIATVVVQIVVTIISYISKIMPIVMTIIGVIVSIITTIISYVVIIATTIASVIGKIISFIASVITAVIGIVQPIIAFITNIFTTIVTIIGAAFQMVFTVASKIWNSIMSTISGIIDGIKAVITGISTTVSSVFNGVKRIITGVFDGIKSAWGGLTDFVGNIFDGVSSAIQTVVDNVKGFVNVVIRGINGAIGLINKIPGVEIGKIPQLISGTTNFQGGFARMNEGGRGEMVVLPSGSQVIPHDATMKYARESARGNKSMLYTSQGADLARVENLLERLLQKNPVIKMDDKVVAEVVSRNQANSFDQYNYTMGGAAYS” here?
**A.** not failed

**Q.** With “MADSLAGIDQVTSLHKNNELQLLCFRLGKNKDLYAVNVFKIREVVKYHGNLTIISHENNSLVEGLIIIRELTIPLIDMKKWFYYDSQNKNKDLRPYRIEKEKGEDDIVMICEFSRWTIGVRIYEADRILSKKWTEMEQSAGLGGSAGNNKLVSRTRYFDGRLVQVVDIEKMLIDVFPWIEDEKHNDLETLSKIHSNQCVLLADDSPSVLKTMQMILDKLGVKHIDFINGKTLLEHLFNPTTDVSNIGLIITDLEMPEASGFEVIKQVKNNPLTSKIPIVVNSSMSGSSNEDMARSLKADDFISKSNPKDIQRVVKQFLELA” as the sequence, how does the protein production read?
**A.** failed

**Q.** With “MADSRQAQGPGKSVLGIGQRIVTIIVEMVETRLRLAVVELEEEKANLFQLLLMVGLTMLFAAFGLMSLMVLVIWAIDPQYRLNAMIATTVVLLVLALIGGIWTLRKARQSTLLRHTRHELANDRQILEDDQS” as the sequence, how does the protein production read?
**A.** failed

**Q.** With “MADSSRADFWEQRYREGVTPWEGGQLPPRARAFFAAQRPLRVLMPGCGSAADLPPLLAMGHDVLAVDFSEAAIELAARQWPEAAGRLLLADFFQLQMPAFDCLFERAFLCALPVGMRSQYAERVAALIAPGGALAGVFFVADTERGPPFGMQAEALRELLSPWFELEEDLALDESVAVFRNRERWMVWRRRGFDLGQVSEHESTGNCGAHRKE” as the sequence, how does the protein production read?
**A.** failed

**Q.** With “MADVAVLNIDSVICVNKNNDKSTPLTQLFLVLVAAESFYPTRRFVGIRVKRRQHQHLLESLVHSTAKQQGDFTKTAELATELLCQNLAVSLVSIWIFSADQGTQSLVAQFGSMALQDTYRPSLLHTVPRYLNELKNYRHIDAGNTLIDPRLTELVDSYFIPRQILSSLDVGIRINGHLEGVLCIERAQVTHHWHDSEIHLACQMADQLALTLATKHAYDKEERLSLFRCAIEQSRQMSMLINLHTEKVEYVNQAHEDITGIARDKSIGTNLRDLTFFRQHNALAEQTLAKIFRGDQAKGEVQFSRTDGSRYWLKYIVSQFITDRGNHYALVSGEENSDEHNYKAELERLAWRCGLTGLNNRSHFNRVLERTTHGLLLLVDLVAFKRFNDTYGHENGDSLLIEVGRRLKHFSEINKATEIARVGSDEFAVLLTDDNAVYDLDYFSTRLYQHLAMPILIGREQVEPKPALAVVDIASVANLFAPLTCADIAVQYAKKKKGTAIQVFNSTLLSAFKEDAQIERDLHSAIRGRQFELYYQPLRDLEQQTYIGAEALIRWHHPKKGVLYPGAFIDIAEQSGMINAIGSWVLEAACRQLNIWQHHNADLSMHVNVSARQFFSGNLYEQVWQLLTRYRLKPKTLILEITETELMGDIRHATLLCQELAELGVGLAIDDFGTGYSSMRYLKQFPISKLKIDRSFISDLTISRESQEIVSAIIAMANALNISLTAEGVETAEQEAFLAKSLCHQAQGFLYSPALREPEFAQFLLTAKQPNLIAH” as the sequence, how does the protein production read?
**A.** failed

**Q.** With “MADWTRAQSSGAVEEILDRENKRMADSLASKVTRLKSLALDIDRDTEDQNRYLDGMDSDFTSVTGLLTGSVKRFSTVARSGRDNRKLLCGMAVVLIVAFFILSYLLSRTRT” as the sequence, how does the protein production read?
**A.** failed

**Q.** For “MAEAIFALDVGTRKVAGLVLAQGKKGYHIQAAAVVEHQQRAMLDGQIHDIPQVALAIQDVKGQLEKKLHISLKEAAVAAAGRALKTWRASATSQLSPAQEIAPQAVLALEAAAVQEAEKLLLEASEQPLAYHCVGYSVVGYNLDGHPIGNLVGQRGQSMTAEVIATFLPRVVVDSLVTALERAGLAMHSLTLEPIAASAVAVPAAMRGLNLALVDIGAGTSDIAITGQGTISGYAMVPSAGDEITEALASALILDFNTAERVKRQLSTRENLTFTDVVGQRHTLAAAELMEIIKPAVTELARQVATQIILLNGKPPQAVLLIGGGSLTPGLAAALAGQLEISPERVAVRGREVLNGISGAKNLQGPQAITPIGIAITALKREGLGLARVIVNGRPVHFLAGQQMTVTQALLAAGIPARHLYGRPGRGLGVEVNGRLTFLRGQPGEPGKILVNEAPATLETVVKAGDHIIVTPGRDGADAWGTVGDLVPELAPKTITFNGRRITLEPEIIMNGNRVDYRTPVQDQARITYNPLDTVARVLEYLGEPLDGPVLLNGQQVRPEAPIKDGDNLVTGAGATGRNINITINGRPATLRVQAGEALFTDVFNYLDFPSSPPPGRKTLVMEVNGRPAEFTTPLAEGDAVTLRWDP”, which protein production is on record?
**A.** failed

**Q.** With “MAEASPQPGRYFCHCCSVEIVPRLPDYICPRCESGFIEELPEETRNTENGSAPSTAPTDQNRQPFENVDQHLFTLPQGYSQFAFGIFDDSFEIPTFPPGAQADDGRDPESRREREHQSRHRYGARQPRARLTARRATGRHEGVPTLEGIIQQLVNGIISPAAVPSLGLGPWGVLHSNPMDYAWGANGLDTIITQLLNQFENTGPPPADKEKIQALPTVPVTEEHVGSGLECPVCKEDYALGESVRQLPCNHLFHDSCIVPWLEQHDSCPVCRKSLTGQNTATNPPGLTGVGFSSSSSSSSSSSPSNENATSNS” as the sequence, how does the protein production read?
**A.** not failed

**Q.** Which protein production does the source give for “MAEEEVGNSQRQSEEIEAMAAIYGEEWCVIDENAKIFCIRVTDFMDDPKWTLCLQVMLPSEYPGTAPPSYQLNAPWLKGQERADLSNSLEEIYVHNMGESILYQWVEKIRDALIQKSQITEPDPDVKKKTEEVEVESEEDPILEHPPENPVKTLDLKISEETQPETEELPPVAHGVPITDRRSTFQAHVAPVVCPEQVKLVLAKLYENKKIASATHNIYAYRIFCEDKQTFLQDCEDDGETAAGGRLLHLMEILNVKNVMVVVSRWYGGILLGPDRFKHINNCARNILVEKNFTNTPDESTKNLGKKKVKKDKKKNDH” here?
**A.** failed

**Q.** Which protein production does the source give for “MAEFPASLLILNGKSTDNLPLREAIMLLREEGMTIHVRVTWEKGDAARYVEEARKFGVATVIAGGGDGTINEVSTALIQCEGDDIPALGILPLGTANDFATSVGIPEALDKALKLAIAGDAIAIDMAQVNKQTCFINMATGGFGTRITTETPEKLKAALGSVSYIIHGLMRMDTLQPDRCEIRGENFHWQGDALVIGIGNGRQAGGGQQLCPNALINDGLLQLRIFTGDEILPALVSTLKSDEDNPNIIEGASSWFDIQAPHDITFNLDGEPLSGQNFHIEILPAALRCRLPPDCPLLR” here?
**A.** not failed

**Q.** Which protein production does the source give for “MAEHPIQGLMETAMESIKEMVDVNTIVGDAVQAPDGTVIIPISKVTFGFAAGGGEFASCCSVDEKGEDSSDDSSKPEIKFPFAGGSGAGVSINPVAFMVVGQGQIKLLPVNINSSLEKILDLIPEIIEKTKDSVKKNLKVKKEIKPGNGESCAKSSKEDENELEHHHHHH” here?
**A.** not failed
